B1: GpH7-B3 variant Y300_01G/GpL16-k0 (homodimerized antibody, Ho Ab) (antibody, human IgG1, kappa)
heavy: not shown
light: DIVMTQSPLSLPVTPGEPASISCQASESLVHSNRNTYLHWYLQKPGQSPQLLIYKVSNRFSGVPDRFSGSGSGTDFTLKISRVEAEDVGVYYCSQNTHVPPTFGQGTKVEIERTVAAPSVFIFPPSDEQLKSGTASVVCLLNNFYPREAKVQWKVDNALQSGNSQESVTEQDSKDSTYSLSSTLTLSKADYEKHKVYACEVTHQGLSSPVTKSFNRGEC
notes: Anti-glypican-3 IgG1 (G1d with K439E); same alteration in both H chains
B2: GpH7-B3 variant Y300_09D/GpL16-k0 (homodimerized antibody, Ho Ab) (antibody, human IgG1, kappa)
heavy: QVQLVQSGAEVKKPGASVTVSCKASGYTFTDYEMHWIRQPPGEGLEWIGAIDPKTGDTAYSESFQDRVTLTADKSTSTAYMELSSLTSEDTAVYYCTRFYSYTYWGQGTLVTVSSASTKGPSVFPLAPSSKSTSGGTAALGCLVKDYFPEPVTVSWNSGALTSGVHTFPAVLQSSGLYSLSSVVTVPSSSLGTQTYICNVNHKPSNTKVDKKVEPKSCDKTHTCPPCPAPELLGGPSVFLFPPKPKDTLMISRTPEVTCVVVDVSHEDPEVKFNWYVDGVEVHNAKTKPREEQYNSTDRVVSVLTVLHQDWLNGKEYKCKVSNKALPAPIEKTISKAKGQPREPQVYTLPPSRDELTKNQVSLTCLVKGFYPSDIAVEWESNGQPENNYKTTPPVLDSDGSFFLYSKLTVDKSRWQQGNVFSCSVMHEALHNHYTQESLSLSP
light: B1 light
notes: as for B1
B3: GpH7-B3 variant Y296_18N/GpL16-k0 (homodimerized antibody, Ho Ab) (antibody, human IgG1, kappa)
heavy: not shown
light: B1 light
notes: as for B1
B4: GpH7-B3 variant Y296_13S/GpL16-k0 (homodimerized antibody, Ho Ab) (antibody, human IgG1, kappa)
heavy: not shown
light: B1 light
notes: as for B1
B5: GpH7-B3 variant Y300_14T/GpL16-k0 (homodimerized antibody, Ho Ab) (antibody, human IgG1, kappa)
heavy: not shown
light: B1 light
notes: as for B1
B6: GpH7-B3 variant Y300_20W/GpL16-k0 (homodimerized antibody, Ho Ab) (antibody, human IgG1, kappa)
heavy: not shown
light: B1 light
notes: as for B1
B7: GpH7-B3 variant Y296_06M/GpL16-k0 (homodimerized antibody, Ho Ab) (antibody, human IgG1, kappa)
heavy: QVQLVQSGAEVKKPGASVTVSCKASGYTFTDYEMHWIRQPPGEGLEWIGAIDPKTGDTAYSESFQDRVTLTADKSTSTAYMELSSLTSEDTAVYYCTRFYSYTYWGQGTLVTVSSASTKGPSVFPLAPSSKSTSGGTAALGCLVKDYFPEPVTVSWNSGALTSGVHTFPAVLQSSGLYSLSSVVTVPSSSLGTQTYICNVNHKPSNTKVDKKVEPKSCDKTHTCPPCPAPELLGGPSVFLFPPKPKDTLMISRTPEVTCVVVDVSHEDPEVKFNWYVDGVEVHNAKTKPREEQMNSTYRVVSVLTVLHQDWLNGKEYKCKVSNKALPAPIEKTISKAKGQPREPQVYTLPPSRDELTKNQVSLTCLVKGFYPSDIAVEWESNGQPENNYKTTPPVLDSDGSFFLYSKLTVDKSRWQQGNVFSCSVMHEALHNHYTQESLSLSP
light: B1 light
notes: as for B1
B8: GpH7-B3 variant Y296_19Q/GpL16-k0 (homodimerized antibody, Ho Ab) (antibody, human IgG1, kappa)
heavy: not shown
light: B1 light
notes: as for B1
B9: GpH7-B3 variant T335_18N/GpL16-k0 (homodimerized antibody, Ho Ab) (antibody, human IgG1, kappa)
heavy: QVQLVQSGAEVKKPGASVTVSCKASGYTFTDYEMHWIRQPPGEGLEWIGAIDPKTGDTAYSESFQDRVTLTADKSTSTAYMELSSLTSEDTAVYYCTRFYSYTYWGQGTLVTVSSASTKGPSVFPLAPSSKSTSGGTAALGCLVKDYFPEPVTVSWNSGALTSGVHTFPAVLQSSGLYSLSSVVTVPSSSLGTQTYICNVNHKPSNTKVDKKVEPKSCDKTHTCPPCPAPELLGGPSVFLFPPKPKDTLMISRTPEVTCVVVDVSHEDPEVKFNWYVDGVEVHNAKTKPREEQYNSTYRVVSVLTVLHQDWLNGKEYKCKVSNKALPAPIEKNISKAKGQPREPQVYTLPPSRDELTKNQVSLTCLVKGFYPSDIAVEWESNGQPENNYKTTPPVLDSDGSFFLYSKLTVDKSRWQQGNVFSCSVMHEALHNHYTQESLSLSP
light: B1 light
notes: as for B1
B10: GpH7-B3 variant T335_20W/GpL16-k0 (homodimerized antibody, Ho Ab) (antibody, human IgG1, kappa)
heavy: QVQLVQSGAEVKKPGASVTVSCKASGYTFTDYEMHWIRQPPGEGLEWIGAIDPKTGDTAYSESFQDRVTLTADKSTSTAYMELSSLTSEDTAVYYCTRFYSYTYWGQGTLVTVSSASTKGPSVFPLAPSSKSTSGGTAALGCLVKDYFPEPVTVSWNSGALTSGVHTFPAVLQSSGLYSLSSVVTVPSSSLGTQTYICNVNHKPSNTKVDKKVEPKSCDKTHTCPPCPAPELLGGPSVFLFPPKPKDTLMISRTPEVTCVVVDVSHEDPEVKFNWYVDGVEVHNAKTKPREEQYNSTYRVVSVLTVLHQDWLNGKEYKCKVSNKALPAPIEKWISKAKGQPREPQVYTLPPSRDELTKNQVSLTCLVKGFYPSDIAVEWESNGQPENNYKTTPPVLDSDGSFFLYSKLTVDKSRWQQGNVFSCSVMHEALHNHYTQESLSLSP
light: B1 light
notes: as for B1
B11: GpH7-B3 variant Y300_08L/GpL16-k0 (homodimerized antibody, Ho Ab) (antibody, human IgG1, kappa)
heavy: not shown
light: B1 light
notes: as for B1
B12: GpH7-B3 variant Y300_13S/GpL16-k0 (homodimerized antibody, Ho Ab) (antibody, human IgG1, kappa)
heavy: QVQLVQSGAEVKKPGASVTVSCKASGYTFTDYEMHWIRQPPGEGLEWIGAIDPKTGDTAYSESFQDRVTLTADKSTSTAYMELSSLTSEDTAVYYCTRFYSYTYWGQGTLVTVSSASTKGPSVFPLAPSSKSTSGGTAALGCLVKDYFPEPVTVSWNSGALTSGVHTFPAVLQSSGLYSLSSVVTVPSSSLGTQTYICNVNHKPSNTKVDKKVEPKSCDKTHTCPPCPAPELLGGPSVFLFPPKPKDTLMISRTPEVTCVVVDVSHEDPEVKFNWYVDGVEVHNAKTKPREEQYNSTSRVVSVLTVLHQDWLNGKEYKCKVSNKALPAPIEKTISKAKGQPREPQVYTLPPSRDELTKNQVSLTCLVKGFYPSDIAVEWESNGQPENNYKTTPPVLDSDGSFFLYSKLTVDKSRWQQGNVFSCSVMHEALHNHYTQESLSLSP
light: B1 light
notes: as for B1
B13: GpH7-B3 variant Y300_10E/GpL16-k0 (homodimerized antibody, Ho Ab) (antibody, human IgG1, kappa)
heavy: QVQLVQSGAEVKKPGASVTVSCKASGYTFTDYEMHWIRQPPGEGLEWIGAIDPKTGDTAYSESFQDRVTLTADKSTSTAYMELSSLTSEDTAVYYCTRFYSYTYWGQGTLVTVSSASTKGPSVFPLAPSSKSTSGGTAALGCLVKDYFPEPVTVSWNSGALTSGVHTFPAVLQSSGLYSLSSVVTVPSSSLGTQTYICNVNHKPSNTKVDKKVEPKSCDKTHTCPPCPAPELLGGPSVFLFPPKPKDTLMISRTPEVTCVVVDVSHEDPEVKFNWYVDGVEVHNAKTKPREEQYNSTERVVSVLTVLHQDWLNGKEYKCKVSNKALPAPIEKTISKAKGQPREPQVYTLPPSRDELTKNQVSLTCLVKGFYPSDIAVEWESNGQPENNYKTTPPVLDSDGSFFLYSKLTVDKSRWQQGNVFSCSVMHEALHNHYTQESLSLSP
light: B1 light
notes: as for B1
B14: GpH7-B3 variant Y296_10E/GpL16-k0 (homodimerized antibody, Ho Ab) (antibody, human IgG1, kappa)
heavy: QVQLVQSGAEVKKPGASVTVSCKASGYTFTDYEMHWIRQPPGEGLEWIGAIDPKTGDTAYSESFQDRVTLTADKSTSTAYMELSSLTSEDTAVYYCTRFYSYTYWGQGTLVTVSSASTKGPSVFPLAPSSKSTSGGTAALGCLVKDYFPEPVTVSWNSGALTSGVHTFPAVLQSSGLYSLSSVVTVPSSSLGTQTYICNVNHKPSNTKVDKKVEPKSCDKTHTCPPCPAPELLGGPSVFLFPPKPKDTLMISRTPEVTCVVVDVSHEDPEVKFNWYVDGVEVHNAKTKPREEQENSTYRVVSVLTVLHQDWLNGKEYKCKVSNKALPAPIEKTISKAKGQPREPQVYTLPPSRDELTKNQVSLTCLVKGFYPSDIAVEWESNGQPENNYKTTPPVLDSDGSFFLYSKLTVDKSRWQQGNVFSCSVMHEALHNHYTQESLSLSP
light: B1 light
notes: as for B1
B15: GpH7-B3 variant Y296_20W/GpL16-k0 (homodimerized antibody, Ho Ab) (antibody, human IgG1, kappa)
heavy: not shown
light: B1 light
notes: as for B1
B16: GpH7-B3 variant Y296_16H/GpL16-k0 (homodimerized antibody, Ho Ab) (antibody, human IgG1, kappa)
heavy: not shown
light: B1 light
notes: as for B1
B17: GpH7-B3 variant Y300_02A/GpL16-k0 (homodimerized antibody, Ho Ab) (antibody, human IgG1, kappa)
heavy: not shown
light: B1 light
notes: as for B1
B18: GpH7-B3 variant Y300_11K/GpL16-k0 (homodimerized antibody, Ho Ab) (antibody, human IgG1, kappa)
heavy: not shown
light: B1 light
notes: as for B1
B19: GpH7-B3 variant Y296_14T/GpL16-k0 (homodimerized antibody, Ho Ab) (antibody, human IgG1, kappa)
heavy: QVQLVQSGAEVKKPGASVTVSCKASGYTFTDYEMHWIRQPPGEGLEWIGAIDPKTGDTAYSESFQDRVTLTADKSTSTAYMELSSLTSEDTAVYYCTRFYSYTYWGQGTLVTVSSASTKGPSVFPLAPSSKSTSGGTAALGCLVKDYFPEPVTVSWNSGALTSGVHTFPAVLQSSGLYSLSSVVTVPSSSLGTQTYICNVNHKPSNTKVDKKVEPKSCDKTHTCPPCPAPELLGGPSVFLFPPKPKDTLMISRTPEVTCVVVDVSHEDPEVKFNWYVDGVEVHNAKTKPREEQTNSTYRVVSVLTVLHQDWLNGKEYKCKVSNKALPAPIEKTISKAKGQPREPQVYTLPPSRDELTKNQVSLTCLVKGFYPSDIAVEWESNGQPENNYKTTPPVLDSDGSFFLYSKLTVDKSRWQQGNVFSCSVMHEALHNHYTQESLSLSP
light: B1 light
notes: as for B1
B20: GpH7-B3 variant Y300_06M/GpL16-k0 (homodimerized antibody, Ho Ab) (antibody, human IgG1, kappa)
heavy: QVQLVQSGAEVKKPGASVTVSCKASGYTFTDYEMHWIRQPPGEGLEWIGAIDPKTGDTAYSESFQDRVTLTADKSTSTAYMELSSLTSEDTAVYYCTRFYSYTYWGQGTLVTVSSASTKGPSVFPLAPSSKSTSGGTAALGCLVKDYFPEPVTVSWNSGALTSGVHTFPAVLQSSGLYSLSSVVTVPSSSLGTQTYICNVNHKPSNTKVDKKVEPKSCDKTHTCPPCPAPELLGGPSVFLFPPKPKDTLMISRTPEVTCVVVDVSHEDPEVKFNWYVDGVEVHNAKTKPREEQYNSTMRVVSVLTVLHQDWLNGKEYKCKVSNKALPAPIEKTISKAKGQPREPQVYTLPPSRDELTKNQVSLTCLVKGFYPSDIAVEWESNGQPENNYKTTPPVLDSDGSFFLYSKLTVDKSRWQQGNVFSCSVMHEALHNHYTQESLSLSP
light: B1 light
notes: as for B1
B21: GpH7-B3 variant Y296_11K/GpL16-k0 (homodimerized antibody, Ho Ab) (antibody, human IgG1, kappa)
heavy: not shown
light: B1 light
notes: as for B1
B22: GpH7-B3 variant Y300_19Q/GpL16-k0 (homodimerized antibody, Ho Ab) (antibody, human IgG1, kappa)
heavy: not shown
light: B1 light
notes: as for B1
B23: GpH7-B3 variant T335_19Q/GpL16-k0 (homodimerized antibody, Ho Ab) (antibody, human IgG1, kappa)
heavy: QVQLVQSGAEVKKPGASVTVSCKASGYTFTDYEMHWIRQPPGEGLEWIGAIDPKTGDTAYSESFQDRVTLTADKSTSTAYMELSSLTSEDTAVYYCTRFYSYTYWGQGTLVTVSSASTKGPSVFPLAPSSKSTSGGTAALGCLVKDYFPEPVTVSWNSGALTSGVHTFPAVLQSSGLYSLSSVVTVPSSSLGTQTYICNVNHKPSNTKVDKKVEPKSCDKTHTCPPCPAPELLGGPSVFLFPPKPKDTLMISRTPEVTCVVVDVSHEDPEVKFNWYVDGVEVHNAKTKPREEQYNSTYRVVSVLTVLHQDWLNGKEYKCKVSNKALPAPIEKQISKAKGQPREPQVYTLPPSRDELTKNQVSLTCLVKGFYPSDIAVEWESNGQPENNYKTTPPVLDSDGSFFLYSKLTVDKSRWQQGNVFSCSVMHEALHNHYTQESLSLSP
light: B1 light
notes: as for B1
B24: GpH7-B3 variant Y296_12R/GpL16-k0 (homodimerized antibody, Ho Ab) (antibody, human IgG1, kappa)
heavy: not shown
light: B1 light
notes: as for B1
B25: GpH7-B3 variant Y300_03V/GpL16-k0 (homodimerized antibody, Ho Ab) (antibody, human IgG1, kappa)
heavy: not shown
light: B1 light
notes: as for B1
B26: GpH7-B3 variant T335_16H/GpL16-k0 (homodimerized antibody, Ho Ab) (antibody, human IgG1, kappa)
heavy: not shown
light: B1 light
notes: as for B1
B27: GpH7-A5/GpH7-B3 variant Y300_01G/GpL16-k0 (heterodimerized antibody, He Ab) (antibody, human IgG1, kappa)
heavy 1: not shown
heavy 2: not shown
light: B1 light
notes: Anti-glypican-3 IgG1; alteration only in the GpH7-B3 (K439E) chain; other H chain is GpH7-A5 (D356K/H435R)
B28: GpH7-A5/GpH7-B3 variant Y300_08L/GpL16-k0 (heterodimerized antibody, He Ab) (antibody, human IgG1, kappa)
heavy 1: not shown
heavy 2: not shown
light: B1 light
notes: as for B27
B29: GpH7-A5/GpH7-B3 variant Y300_11K/GpL16-k0 (heterodimerized antibody, He Ab) (antibody, human IgG1, kappa)
heavy 1: not shown
heavy 2: not shown
light: B1 light
notes: as for B27
B30: GpH7-A5/GpH7-B3 variant Y300_09D/GpL16-k0 (heterodimerized antibody, He Ab) (antibody, human IgG1, kappa)
heavy 1: not shown
heavy 2: not shown
light: B1 light
notes: as for B27
B31: GpH7-A5/GpH7-B3 variant Y300_20W/GpL16-k0 (heterodimerized antibody, He Ab) (antibody, human IgG1, kappa)
heavy 1: not shown
heavy 2: not shown
light: B1 light
notes: as for B27
B32: GpH7-A5/GpH7-B3 variant Y300_19Q/GpL16-k0 (heterodimerized antibody, He Ab) (antibody, human IgG1, kappa)
heavy 1: not shown
heavy 2: not shown
light: B1 light
notes: as for B27
B33: GpH7-A5/GpH7-B3 variant Y296_19Q/GpL16-k0 (heterodimerized antibody, He Ab) (antibody, human IgG1, kappa)
heavy 1: not shown
heavy 2: not shown
light: B1 light
notes: as for B27
B34: GpH7-A5/GpH7-B3 variant T335_20W/GpL16-k0 (heterodimerized antibody, He Ab) (antibody, human IgG1, kappa)
heavy 1: not shown
heavy 2: not shown
light: B1 light
notes: as for B27
B35: GpH7-A5/GpH7-B3 variant Y296_11K/GpL16-k0 (heterodimerized antibody, He Ab) (antibody, human IgG1, kappa)
heavy 1: not shown
heavy 2: not shown
light: B1 light
notes: as for B27
B36: GpH7-A5/GpH7-B3 variant Y300_14T/GpL16-k0 (heterodimerized antibody, He Ab) (antibody, human IgG1, kappa)
heavy 1: not shown
heavy 2: not shown
light: B1 light
notes: as for B27
B37: GpH7-A5/GpH7-B3 variant T335_19Q/GpL16-k0 (heterodimerized antibody, He Ab) (antibody, human IgG1, kappa)
heavy 1: not shown
heavy 2: not shown
light: B1 light
notes: as for B27
B38: GpH7-A5/GpH7-B3 variant Y300_13S/GpL16-k0 (heterodimerized antibody, He Ab) (antibody, human IgG1, kappa)
heavy 1: not shown
heavy 2: not shown
light: B1 light
notes: as for B27
B39: GpH7-A5/GpH7-B3 variant Y300_02A/GpL16-k0 (heterodimerized antibody, He Ab) (antibody, human IgG1, kappa)
heavy 1: not shown
heavy 2: not shown
light: B1 light
notes: as for B27
B40: GpH7-A5/GpH7-B3 variant Y296_13S/GpL16-k0 (heterodimerized antibody, He Ab) (antibody, human IgG1, kappa)
heavy 1: not shown
heavy 2: not shown
light: B1 light
notes: as for B27
B41: GpH7-A5/GpH7-B3 variant Y300_03V/GpL16-k0 (heterodimerized antibody, He Ab) (antibody, human IgG1, kappa)
heavy 1: not shown
heavy 2: not shown
light: B1 light
notes: as for B27
B42: GpH7-A5/GpH7-B3 variant Y296_10E/GpL16-k0 (heterodimerized antibody, He Ab) (antibody, human IgG1, kappa)
heavy 1: not shown
heavy 2: not shown
light: B1 light
notes: as for B27
B43: GpH7-A5/GpH7-B3 variant Y296_14T/GpL16-k0 (heterodimerized antibody, He Ab) (antibody, human IgG1, kappa)
heavy 1: not shown
heavy 2: not shown
light: B1 light
notes: as for B27
B44: GpH7-A5/GpH7-B3 variant Y296_06M/GpL16-k0 (heterodimerized antibody, He Ab) (antibody, human IgG1, kappa)
heavy 1: not shown
heavy 2: not shown
light: B1 light
notes: as for B27
B45: GpH7-A5/GpH7-B3 variant Y296_16H/GpL16-k0 (heterodimerized antibody, He Ab) (antibody, human IgG1, kappa)
heavy 1: not shown
heavy 2: not shown
light: B1 light
notes: as for B27
B46: GpH7-A5/GpH7-B3 variant Y300_10E/GpL16-k0 (heterodimerized antibody, He Ab) (antibody, human IgG1, kappa)
heavy 1: not shown
heavy 2: not shown
light: B1 light
notes: as for B27
B47: GpH7-A5/GpH7-B3 variant Y296_18N/GpL16-k0 (heterodimerized antibody, He Ab) (antibody, human IgG1, kappa)
heavy 1: not shown
heavy 2: not shown
light: B1 light
notes: as for B27
B48: GpH7-A5/GpH7-B3 variant Y296_12R/GpL16-k0 (heterodimerized antibody, He Ab) (antibody, human IgG1, kappa)
heavy 1: not shown
heavy 2: not shown
light: B1 light
notes: as for B27
B49: GpH7-A5/GpH7-B3 variant T335_16H/GpL16-k0 (heterodimerized antibody, He Ab) (antibody, human IgG1, kappa)
heavy 1: not shown
heavy 2: not shown
light: B1 light
notes: as for B27
B50: GpH7-A5/GpH7-B3 variant Y300_06M/GpL16-k0 (heterodimerized antibody, He Ab) (antibody, human IgG1, kappa)
heavy 1: not shown
heavy 2: not shown
light: B1 light
notes: as for B27
B51: GpH7-A5/GpH7-B3 variant T335_18N/GpL16-k0 (heterodimerized antibody, He Ab) (antibody, human IgG1, kappa)
heavy 1: not shown
heavy 2: not shown
light: B1 light
notes: as for B27
B52: GpH7-A5/GpH7-B3 variant Y296_20W/GpL16-k0 (heterodimerized antibody, He Ab) (antibody, human IgG1, kappa)
heavy 1: not shown
heavy 2: not shown
light: B1 light
notes: as for B27

target: T1, FcγRIa (human, UniProt P12314 16-292); test: SPR (Biacore), antibody captured on antigen-peptide chip, FcγRIa as analyte; binding activity relative to control GpH7-B3/GpL16-k0 (HoCon Ab) x100
T1 construct: extracellular domain; Soluble extracellular domain with C-terminal His tag, expressed in FreeStyle293 cells; analyte in Biacore; also called FcgRI; CD64; not shown: His tag attached to the C terminus
T1 sequence (P12314 16-292): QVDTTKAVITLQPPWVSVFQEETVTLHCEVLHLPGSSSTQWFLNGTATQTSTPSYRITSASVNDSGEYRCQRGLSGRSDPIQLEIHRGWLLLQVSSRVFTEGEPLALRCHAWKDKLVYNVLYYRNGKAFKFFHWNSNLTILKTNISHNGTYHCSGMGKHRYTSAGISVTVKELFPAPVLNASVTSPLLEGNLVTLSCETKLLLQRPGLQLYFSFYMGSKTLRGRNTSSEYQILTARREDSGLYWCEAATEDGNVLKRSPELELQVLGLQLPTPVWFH
Description: (§1) Analysis of interaction between objective antibody and the FcγR was carried out using Biacore T100 (GE Healthcare). HBS-EP+ (GE Healthcare) was used as the running buffer, and the measurement temperature was set to 25° C. Chips produced by immobilizing the antigen peptide by the amine coupling method to a Series S Sencor Chip CM5 (GE Healthcare), or alternatively, chips produced by allowing preliminarily biotinylated antigen peptides to interact with and immobilize onto a Series S Sensor Chip SA (certified) (GE Healthcare) were used. Antibodies of interest were captured onto an antigen peptide-immobilized chip, and allowed to interact to each FcγR diluted with running buffer. To regenerate and repeatedly use the chip, the antibodies captured on the chip were washed off by reacting 10 mM glycine-HCl, pH 1.5.

Ho/Con_1a | Binder
109 % of control (=100) | B1
111 % of control (=100) | B2
105 % of control (=100) | B3
105 % of control (=100) | B4
110 % of control (=100) | B5
110 % of control (=100) | B6
104 % of control (=100) | B7
104 % of control (=100) | B8
102 % of control (=100) | B9
104 % of control (=100) | B10
109 % of control (=100) | B11
110 % of control (=100) | B12
111 % of control (=100) | B13
106 % of control (=100) | B14
106 % of control (=100) | B15
105 % of control (=100) | B16
110 % of control (=100) | B17
101 % of control (=100) | B18
105 % of control (=100) | B19
111 % of control (=100) | B20
102 % of control (=100) | B21
110 % of control (=100) | B22
105 % of control (=100) | B23
103 % of control (=100) | B24
112 % of control (=100) | B25
104 % of control (=100) | B26

target: T1, FcγRIa; test: SPR (Biacore), antibody captured on antigen-peptide chip, FcγRIa as analyte; binding activity relative to control GpH7-A5/GpH7-B3/GpL16-k0 (HeCon Ab) x100
Description: as §1

He/Con_1a | Binder
116 % of control (=100) | B27
113 % of control (=100) | B28
107 % of control (=100) | B29
112 % of control (=100) | B30
112 % of control (=100) | B31
112 % of control (=100) | B32
112 % of control (=100) | B33
106 % of control (=100) | B34
105 % of control (=100) | B35
112 % of control (=100) | B36
105 % of control (=100) | B37
111 % of control (=100) | B38
112 % of control (=100) | B39
105 % of control (=100) | B40
117 % of control (=100) | B41
106 % of control (=100) | B42
105 % of control (=100) | B43
104 % of control (=100) | B44
106 % of control (=100) | B45
114 % of control (=100) | B46
106 % of control (=100) | B47
106 % of control (=100) | B48
106 % of control (=100) | B49
112 % of control (=100) | B50
106 % of control (=100) | B51
111 % of control (=100) | B52

Reference: patent US20150344570A1 (published 2015)
